Laboratory results from patent US20250312416A1, “METHOD AND PHARMACEUTICAL COMPOSITION FOR CARTILAGE REGENERATION” (FAR EASTERN MEMORIAL HOSPITAL, priority 2024, published 2025).

Tests used:
[1] = system: tibial articular cartilage of WT mice after ACLT; experiment: ACLT-induced OA mouse model, Safranin O / collagen II staining and OARSI score (CXCL14 protein); assay type: in vivo; settings: for OARSI score: ACLT group 5.5, sham group 0.17
[2] = system: IPFP-MSC from OA patients; experiment: Alcian blue staining of chondrogenic pellets (GAG), IPFP-MSC; assay type: cell-based, human; settings: IPFP-MSC during chondrogenesis, day 3
Procedure: (§1) The GSE140861 microarray database was used for analyzing the potential genes from human bone marrow cells at different time points during chondrogenesis. Whole-genome expression analysis was carried out using Illumina (CA) Human Ref-8v3 or Human HT-12 v4 BeadArrays™. It was first selected the secreted protein from this database and further verified the functions of the candidate genes. The numbers of significant differences in gene expressions of different time points from human bone marrow stem cells during chondrogenesis. […] Alcian blue staining analyzed the chondrogenic differentiation of pellets with varying ratios of IPFP-MSC. CXCL14 increased the GAG deposition in IPFP-MSC during chondrogenesis on day 3. FIG. 1C provides the fluorescence confocal microscopy images showing IPFP-MSC spheroids from OA patients treated with CXCL14 for 7 days; wherein the nuclei were stained with DAPI (blue), and merged images display SOX9 (red), type II collagen (green), and aggrecan (light blue) labeling. […] The chondrogenic progenitor cells in the human IPFP-MSC from OA patients were detected using SOX9 and Collagen type II biomarkers. MSCs were assessed by flow cytometry for SOX9 and Collagen type II biomarkers indicative of human MSCs on day 1. In addition, Alcian blue staining analyzed the chondrogenic differentiation of pellets with IPFP-MSC. […]

[3] = system: ADSC spheroids; experiment: Immunofluorescence / confocal microscopy of chondrogenic proteins in ADSC spheroids; assay type: cell-based, human; settings: ADSC spheroids, 7 days
Procedure: Both side views (observed in the x and z plane) and bottom views (observed in the […]) of the images are provided. The scale bar is set at 500 μm.
ADSCs were treated with CXCL14-P, CXCL14-P1, or CXCL14-P2, respectively, at a concentration of 10 ng for 24 hours, after which the medium was replaced with fresh peptide-free medium. On day 7, total RNA was extracted, and real-time PCR analysis was performed to assess the expression levels of key chondrogenic markers, including ACAN, COL2A1, SOX9, and COMP. Gene expression levels were quantified using a LightCycler system (Roche Applied Science), with fold changes calculated relative to untreated control ADSCs. […] Immunofluorescence staining was performed to detect Collagen Type II, SOX9, COMP, and nuclei (Hoechst 33342) in 3D ADSC spheroids (middle panel).
(FIG. 3). […] Moreover, fluorescence confocal microscopy was employed to detect protein patterns and confirm the levels of SOX9, type II collagen, and aggrecan proteins in ADSC spheroids. […] Finally, to investigate whether the CXCR4 receptor of CXCL12/CXCL14 confers chondrogenic signaling during chondrogenesis, we treated ADSCs with a CXCR4 agonist for 7 days.
Extracellular vesicles (EVs) derived from MSCs hold significant potential for repairing damaged tissues. In this study, we explored whether EVs from ADSCs could effectively enhance chondrogenesis and promote cartilage repair. Immunofluorescence staining was used to assess protein levels of Collagen Type II (green), SOX9 (red), COMP (indigo), and Hoechst 33342 (gray) in 3D ADSC spheroids treated with MSC-EVs derived from CXCL14 peptide-primed ADSCs (CXCL14-P-MSC-EVs) at various time points. […] To further explore the cartilage repair functions of EVs from CXCL14-P-treated ADSCs and the encapsulation of the transcription factor SOX9 within MSCs and purified EVs, we performed in vivo studies.

[4] = system: IPFP-MSC spheroids from OA patients; experiment: Fluorescence confocal microscopy of IPFP-MSC spheroids (SOX9, type II collagen, aggrecan); assay type: cell-based, human; settings: MSC spheroids during chondrogenesis, 7 days
Procedure: as §1

B1: CXCL14: small cytokine belonging to the CXC chemokine family, also known as BRAK; used as recombinant protein (protein, UniProt O95715 35-111, looked up)
C-X-C motif chemokine 14: SKCKCSRKGPKIRYSDVKKLEMKPKYPHCEEKMVIITTKSVSRYRGQEHCLHPKLQSTKRFIKWYNAWNEKRRVYEE
- OARSI score ([1]; CXCL14 10 ng): 2.7
- OARSI score ([1]; CXCL14 20 ng): 1
- cartilage repair (staining GAG content and type II collagen) ([1]; dose-dependent, ACLT-induced OA): can stimulate cartilage repair
- GAG deposition (Alcian blue) [2]: increased
- expression of SOX9, type II collagen, and aggrecan [3]: notably induced
- levels of SOX9, type II collagen, and aggrecan [4]: elevated levels
